Data as given in patent publication US20060240015A1 (Kyowa Kirin, published 2006).

Legend:
human insulin = biological target: T1, human insulin (human, UniProt P01308 25-54; P01308 90-110); experiment: competitive ELISA, methylated BSA-hIGF-I or methylated BSA-hIGF-II coated, insulin in solution
T1 construct: Bought
Text: Cross reactivity of the purified anti-hIGF rat antibody KM1468 with hIGF-II and human insulin was examined by the competitive ELISA shown below. As the antigens, hIGF-I (manufactured by Pepro Tech), hIGF-II (manufactured by Pepro Tech) and human insulin (manufactured Wako Pure Chemical Industries) were used.
The methylated BSA-hIGF-I antigen prepared in Reference Example 1(1) or a methylated BSA-hIGF-II antigen prepared in the same manner as in Reference Example 1(1) was immobilized on a plate in accordance with the method shown in Reference Example 1(4), at a concentration of 0.1 μg/ml in the case of the methylated BSA-hIGF-I antigen, or at a concentration of 1.0 μg/ml in the case of the methylated BSA-hIGF-II antigen, KM1468 diluted to 0.6 μg/ml was dispensed at 25 μl/well, and then each of 4-fold serial dilutions of hIGF-I, hIGF-II or human insulin prepared by starting from 20 μg/ml was dispensed at 25 μl/well, mixed and left at room temperature for 1 hour. After the reaction and subsequent washing with Tween-PBS, 1000-fold diluted peroxidase-labeled rabbit anti-rat Ig antibody (manufactured by DAKO) was added at 50 μl/well as the secondary antibody in the case of the anti-hIGF antibody KM1468. […] The results are represented by relative values (%) wherein OD415 when an antibody was added alone was defined as 100.

[1] = biological target: T2, human insulin-like growth factor-I (human, UniProt P05019 49-118); experiment: SPR (Biacore 2000), hIGF-I amine-coupled on CM-5, antibody as analyte, 25 C
T2 construct: mature; In the ELISAs it was coated as a conjugate with methylated BSA; in Biacore it was amine-coupled to a CM-5 chip; also called hIGF-I; IGF-I
T2 sequence (P05019 49-118): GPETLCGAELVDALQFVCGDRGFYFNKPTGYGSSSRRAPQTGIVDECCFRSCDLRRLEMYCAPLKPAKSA
Procedure: (§1) In order to analyze the binding activity of the anti-hIGF rat monoclonal KM1468 to an antigen hIGF-I or hIGF-II, the binding affinities of the anti-hIGF rat monoclonal KM1468, a commercially available anti-hIGF-I antibody sm1.2 and a commercially available anti-hIGF-II antibody S1F2 to hIGF-I and hIGF-II were assayed in the following manner using the biosensor Biacore 2000 (manufactured by Biacore) utilizing surface plasmon resonance. For the diluting samples and as the reaction buffers in measurement, HBS-EP (10 mM HEPES, 150 mM NaCl, 3 mM EDTA, 0.005% Tween 20, pH 7.4) (manufactured by Biacore) was used.
(§2) Using an amine coupling (manufactured by Biacore), hIGF-I or hIGF-II were immobilized at 36.0 pg/mm² or 41.7 pg/mm², respectively, on sensor tip CM-5 (manufactured by Biacore). After 3 types of the antibodies which were diluted in 6 steps in 2-fold serial dilutions starting from 20 μg/ml as analytes, were added at a flow rate of 20 μl/minute for 2 minutes, the dissociation of the analytes was subsequently observed over 5 minutes. The reaction was carried out at 25° C. Based on the reaction curves at various concentrations, association constant Kass and dissociation constant Kdiss were calculated, to calculate the binding constant KA (M⁻¹) of these various antibodies. The binding constant KA is calculated by KA=Kass/Kdiss.

[2] = biological target: T3, human insulin-like growth factor-II (human, UniProt P01344 25-91); experiment: SPR (Biacore 2000)
T3 construct: also called hIGF-II; IGF-II
T3 sequence (P01344 25-91 limits assumed): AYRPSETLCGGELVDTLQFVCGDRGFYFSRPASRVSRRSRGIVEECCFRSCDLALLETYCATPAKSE

[3] = biological target: T2, human insulin-like growth factor-I; experiment: SPR (Biacore 2000)
[4] = biological target: T3, human insulin-like growth factor-II; experiment: SPR (Biacore 2000), hIGF-II amine-coupled on CM-5, antibody as analyte, 25 C
Procedure: as §1, §2

[5] = biological target: T4, partial peptide of hIGF-I corresponding to 41st to 56th having an inner Cys (human); experiment: competitive ELISA, methylated BSA-hIGF-I coated, peptide in solution
T4 construct: also called p41-56C; p41-56c
T4 peptide: CTGIVDECCFRSCDLRR

[6] = biological target: T5, partial peptide of hIGF-I corresponding to 14th to 30th (human); experiment: as above
T5 construct: also called p14-30
T5 peptide: CLQFVAGDRGFYFNKPTG

[7] = biological target: T6, partial peptide of hIGF-I corresponding to 52nd to 70th (human); experiment: as above
T6 construct: also called p52-70
T6 peptide: CDLRRLEMYAAPLKPAKSA

[8] = biological target: T7, partial peptide of hIGF-I corresponding to 41st to 56th (human); experiment: as above
T7 construct: also called p41-56
T7 peptide: CTGIVDEAAFRSADLRR

[9] = biological target: T8, partial peptide of hIGF-I corresponding to 61st to 70th (human); experiment: as above
T8 construct: also called p61-70
T8 peptide: CAPLKPAKSA

[10] = biological target: T9, partial peptide of hIGF-I corresponding to 24th to 35th (human); experiment: as above
T9 construct: also called p24-35
T9 peptide: CYFNKPTGYGSSS

[11] = biological target: T10, partial peptide of hIGF-I corresponding to 1st to 18th (human); experiment: as above
T10 construct: also called p1-18
T10 peptide: GPETLSGAELVDALQFVC

[12] = biological target: T11, partial peptide of hIGF-I corresponding to 29th to 41st (human); experiment: as above
T11 construct: also called p29-41
T11 peptide: CTGYGSSSRRAPQT

[13] = biological target: T12, partial peptide of hIGF-I corresponding to 36th to 47th (human); experiment: as above
T12 construct: also called p36-47
T12 peptide: RRAPQTGIVDEC

T1 sequence (P01308 25-54 limits assumed, chain 1 of 2): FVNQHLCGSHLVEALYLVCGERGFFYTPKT
T1 sequence (P01308 90-110 limits assumed, chain 2 of 2): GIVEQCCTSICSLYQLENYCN

B1: anti-hIGF rat monoclonal antibody KM1468 (antibody, rat IgG2b, V domains shown)
VH: EVHLVESGGGLVQPGRSLKLSCAASGFTFSNYYMTWVRQAPTKGLEWVAYISSGGGSTYYRDSVKGRFTISRDNAKSTLYLQMDSLRSEDTATYYCTTEDYGYWFAYWGQGTLVTVSS
VL: EIVLTQSPTTMAASPGEKVTITCRASSSVSYMHWFQQKSGTSPKPWIYGTSKLASGVPDRFSGSGSGTSYSLTISSMEAEDAATYYCLQRSSYPPTFGAGTKLELK
notes: Rat IgG2b, kappa; Hybridoma FERM BP-7978; also called anti-hIGF antibody KM1468; anti-hIGF rat antibody KM1468
- binding result (human insulin): no binding
- Ka [1]: 7.86e+09 M⁻¹
- KA relative to S1F2 (fold) [2]: ~3.6 fold
- KA relative to sm1.2 (fold) [2]: ~120 fold
- KA relative to S1F2 (fold) [3]: ~18 fold
- KA relative to sm1.2 (fold) [3]: ~42 fold
- Ka [4]: 8.63e+09 M⁻¹
- binding result [5]: no binding (tested: 3-fold serial dilutions from 50 µg/mL)
- binding result [6]: no binding (tested: 3-fold serial dilutions from 50 µg/mL)
- binding result [7]: no binding (tested: 3-fold serial dilutions from 50 µg/mL)
- binding result [8]: no binding (tested: 3-fold serial dilutions from 50 µg/mL)
- binding result [9]: no binding (tested: 3-fold serial dilutions from 50 µg/mL)
- binding result [10]: no binding (tested: 3-fold serial dilutions from 50 µg/mL)
- binding result [11]: no binding (tested: 3-fold serial dilutions from 50 µg/mL)
- binding result [12]: no binding (tested: 3-fold serial dilutions from 50 µg/mL)
- binding result [13]: no binding (tested: 3-fold serial dilutions from 50 µg/mL)
